Data from paper PMC4536467, “A high affinity RIM-binding protein/Aplip1 interaction prevents the formation of ectopic axonal active zones” (eLife, 2015).

T1: RBP SH3-II+III (ITC construct) (D. melanogaster)
T1 chain: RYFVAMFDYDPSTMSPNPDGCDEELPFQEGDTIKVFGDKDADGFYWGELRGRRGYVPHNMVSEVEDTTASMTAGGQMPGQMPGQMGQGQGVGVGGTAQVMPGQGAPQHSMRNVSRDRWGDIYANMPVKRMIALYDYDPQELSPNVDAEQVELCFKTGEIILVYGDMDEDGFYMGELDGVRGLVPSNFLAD

T2: RBP SH3-III (ITC construct) (D. melanogaster)
T2 chain: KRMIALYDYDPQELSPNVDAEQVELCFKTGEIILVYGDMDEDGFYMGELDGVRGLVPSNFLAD

T3: RBP SH3-II (residue 1318–1382; ITC and crystallisation construct) (D. melanogaster)
T3 chain: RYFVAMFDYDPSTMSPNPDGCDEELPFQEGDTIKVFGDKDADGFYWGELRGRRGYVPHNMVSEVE

T4: RBP SH3-II (residue 1318–1382; ITC and crystallisation construct) (D. melanogaster)
T4 construct: pGEX-6P1, EcoRI/XhoI; also called RBP-BP SH3-II; source: E. coli BL21-CodonPlus-RIL, purified (glutathione sepharose, PreScission cleavage, Superdex 75); not shown: GST, N-terminal, cleaved
T4 chain: T3 chain

T5: RBP SH3-III (ITC construct) (D. melanogaster)
T5 construct: it may be the same protein; also called RBP-BP SH3-III
T5 chain: T2 chain

T6: RBP SH3-II+III (ITC construct) (D. melanogaster)
T6 construct: Cloning and purification of this construct are not described; also called tandem SH3-II+III; RBP-BP SH3-II+SH3-III
T6 chain: T1 chain

T7: RBP SH3-III (residue 1441–1507; crystallisation construct) (D. melanogaster)
T7 construct: pGEX-6P1, EcoRI/XhoI; linker residues may remain at the N-terminus after PreScission cleavage; source: E. coli BL21-CodonPlus-RIL, purified (glutathione sepharose, PreScission cleavage, Superdex 75); not shown: GST, N-terminal, cleaved
T7 chain: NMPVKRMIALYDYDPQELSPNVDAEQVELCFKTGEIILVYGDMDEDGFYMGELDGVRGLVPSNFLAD

B1: RIM1 peptide (GRQLPQVPVRSG) (peptide)
peptide: Ac-GRQLPQVPVRSG-NH2
notes: PxxP peptide named RIM1; May be a mammalian RIM1 motif or one of two motifs of Drosophila RIM; source: synthetic peptide (Leibniz Institute for Molecular Pharmacology)
B2: Aplip-PxxP1 peptide (149-TRRRRKLPEIPKNKK-163) (peptide)
peptide: Ac-TRRRRKLPEIPKNKK-NH2
notes: Aplip1, D. melanogaster, residues 149-163 with the first PxxP motif; also called Aplip1 peptide; Aplip1-PxxP1 peptide; source: synthetic peptide (Leibniz Institute for Molecular Pharmacology)
B3: RIM2 peptide (GRQLPQLPPKGT) (peptide)
peptide: Ac-GRQLPQLPPKGT-NH2
notes: PxxP peptide named RIM2; May be a mammalian RIM2 motif or one of two motifs of Drosophila RIM; source: synthetic peptide (Leibniz Institute for Molecular Pharmacology)
B4: Cac peptide (1685-IGRRLPPTPSKPSTL-1699) (peptide)
peptide: Ac-IGRRLPPTPSKPSTL-NH2
notes: also called Cacophony peptide; Cac-derived peptide; source: synthetic peptide (Leibniz Institute for Molecular Pharmacology)

Legend:
RBP SH3-II+III = experiment: Isothermal titration calorimetry (ITC), peptide titrated into tandem RBP SH3-II+III; assay type: binding, Drosophila; settings: second and third SH3 domain of RBP
Procedure: ITC experiments were performed at 25°C on an iTC200 microcalorimeter (Malvern Instruments Ltd., United Kingdom). The same peptides were employed as used for the co-crystallization experiments (see below). Lyophilized peptides were resuspended in the final buffer of the proteins (10 mM Tris-HCl pH 7.4, 100 mM NaCl). RBP SH3-II and SH3-III were both provided at a concentration of 150 µM, RBP SH3-II+III was provided at 78 µM. The proteins were titrated with 16 injections of 2.5 µl of either Aplip1, Cac, RIM1 or RIM2 peptide at a concentration of 2 mM with 2-min intervals. The released heat was obtained by integrating the calorimetric output curves. Binding parameters were calculated using the Origin5 software using the ‘One Set of Sites’ curve fitting model provided by the software.
For crystallization experiment the RBP SH3-II was concentrated to 56 mg/ml and the RBP SH3-III to 62 mg/ml. The same peptides as for ITC measurements were used and synthesized at the Leibniz Institute for Molecular Pharmacology with N-terminal acetylation and C-terminal amidation. The unsolubilized peptides were mixed in a fivefold molar excess with the protein solution and incubated for 2 hr on ice. Insoluble peptide was removed by centrifugation (16,000×g for 1 min) prior to crystallization experiments. All crystallization experiments were carried out at 291 K in a sitting drop setup. […]

RBP SH3-I = experiment: Isothermal titration calorimetry (ITC), peptide titrated into RBP SH3-I; assay type: binding, Drosophila; settings: 25°C, result in words
RBP SH3-II = experiment: Semi-quantitative liquid Y2H ß-galactosidase assay, bait RBP SH3-II; assay type: cell-based, Drosophila; settings: n = 3 independent experiments, mean ± SEM
Excerpt: (§1) The plasmids (pP6 and pB27) encode tryptophan (Trp) and leucine (Leu) biosynthesis genes, and were successfully double transformed into the TATA strain lacking genes for synthesis of Leu and Trp which can be followed by positive growth in LT media. Reporter genes for the protein–protein interaction are HIS3, which can be later detected by growth on plates lacking histidin, as well as lacZ which allows the detection of interaction in a more quantitative fashion with a β-galactosidase assay. To transform the yeast cells with the pP6 and pB27 vector respectively the LiAc/single strand DNA/PEG technique was used ([Gietz and Schiestl, 2007]).
(§2) The assay was carried out as described in JH Miller ‘Experiments in Molecular Genetics’ 1972 Cold Spring Harbor Laboratories pages 352–355.
(§3) The RBP constructs for Y2H were cloned into pB27 bait vector. The RBP cDNA clone AT04807 (Drosophila Genomics Resource Centre) was used as a template for PCR reaction. For amplification the following primers were used: […]

RBP SH3-III = experiment: Semi-quantitative liquid Y2H ß-galactosidase assay, bait RBP SH3-III; assay type: cell-based, Drosophila; settings: n = 3 independent experiments, mean ± SEM
Excerpt: as §1, §2, §3

[1] = tested on: RBP SH3-II* (Prolin1373 → Leucin); experiment: Semi-quantitative liquid Y2H ß-galactosidase assay, bait point-mutated RBP SH3-II*; assay type: cell-based, Drosophila; settings: n = 3 independent experiments, mean ± SEM
Excerpt: as §1, §2
(§4) By applying the site-directed mutagenesis strategy, different constructs were designed for RBP using mutated primers. Mutagenesis was carried out by Dr Martin Meixner (SMB. GmbH, Germany,). The following point mutations were used:
RBP SH3-II*: Prolin1373 → Leucin

[2] = tested on: RBP SH3-III* (Prolin1500 → Leucin); experiment: Semi-quantitative liquid Y2H ß-galactosidase assay, bait point-mutated RBP SH3-III*; assay type: cell-based, Drosophila; settings: n = 3 independent experiments, mean ± SEM
Excerpt: as §1, §2, §4
RBP SH3-III*: Prolin1500 → Leucin

[3] = target: T1, RBP SH3-II+III (ITC construct); experiment: ITC
[4] = target: T2, RBP SH3-III (ITC construct, letters as …); experiment: ITC
[5] = target: T3, RBP SH3-II (residue 1318–1382; ITC and …); experiment: ITC
[6] = target: T4, RBP SH3-II (residue 1318–1382; ITC and …); experiment: ITC; 25°C, iTC200; RBP SH3-II and SH3-III at 150 µM, SH3-II+III at 78 µM in the cell, titrated with 16 injections of 2.5 µl peptide at 2 mM; 10 mM Tris-HCl pH 7.4, 100 mM NaCl; 'One Set of Sites' model; settings: both partners purified
[7] = target: T5, RBP SH3-III (ITC construct, letters as …); experiment: as above; settings: both partners purified
[8] = target: T4, RBP SH3-II (residue 1318–1382; ITC and …); experiment: crystal structure; co-crystallisation of the SH3 domain with a fivefold molar excess of peptide, sitting drop, 291 K; settings: both partners purified
[9] = target: T6, RBP SH3-II+III (ITC construct); experiment: ITC; 25°C, iTC200; RBP SH3-II and SH3-III at 150 µM, SH3-II+III at 78 µM in the cell, titrated with 16 injections of 2.5 µl peptide at 2 mM; 10 mM Tris-HCl pH 7.4, 100 mM NaCl; 'One Set of Sites' model; settings: both partners purified
[10] = target: T7, RBP SH3-III (residue 1441–1507; …); experiment: crystal structure; co-crystallisation of the SH3 domain with a fivefold molar excess of peptide, sitting drop, 291 K; settings: both partners purified

Molecule | mean ß-Gal4 units: RBP SH3-II (RBP SH3-II) | mean ß-Gal4 units: RBP SH3-III (RBP SH3-III) | Kd [3] | Kd [4] | Kd [5] | binding result [7] | other results
Ac-TRRRRKLPEIPKNKK-NH2 [Aplip1] | – | – | – | – | – | – | affinity relative to RBP binding of its synaptic ligands (Ca2+ channels/RIM) (RBP SH3-II+III): more than 10 fold; binding to RBP SH3-I (RBP SH3-I): could not detect any binding
EDDELGDGLKVTLSSDGSLDTNDSFNSHRHHPLNHQDAIGGFLGMDTSGLGGNSAPVTIGASTDLLAPNTAATRRRRKLAEIAKNKKSSILHLLGGSNFGSLADEFRNGGGGGIPPAVRSGQQRSFLSLKCGYLMDEDS [Aplip1-AxxA1, Y2H prey fragment of Aplip1 (139 AA) with mutated first PxxP motif (P156 → A; P159 → A)] | 0.1 ± 0.1 ß-Gal4 units | 0.2 ± 0.0 ß-Gal4 units | – | – | – | – | –
EDDELGDGLKVTLSSDGSLDTNDSFNSHRHHPLNHQDAIGGFLGMDTSGLGGNSAPVTIGASTDLLAPNTAATRRRRKLPEIPKNKKSSILHLLGGSNFGSLADEFRNGGGGGIPPAVRSGQQRSFLSLKCGYLMDEDS [Aplip1-PxxP1, Y2H prey fragment of Aplip1 (139 AA) containing only the first PxxP motif] | 24.3 ± 6.6 ß-Gal4 units | 29.1 ± 7.4 ß-Gal4 units | – | – | – | – | mean ß-Gal4 units: RBP SH3-II* [1]: 0.1 ± 0.0 ß-Gal4 units; mean ß-Gal4 units: RBP SH3-III* [2]: 0.1 ± 0.0 ß-Gal4 units
LLGGSNFGSLADEFRNGGGGGIPPAVRSGQQRSFLSLKCGYLMDEDSSPDSERMQSLGDVDSGHSTAHSPNDFKSMSPQITSPVSQSPFPPPFGGVPFGQ [Aplip1-PxxP2, Y2H prey fragment of Aplip1 (100 AA) containing only the second PxxP motif] | 0.2 ± 0.0 ß-Gal4 units | 0.2 ± 0.1 ß-Gal4 units | – | – | – | – | –
B1 | – | – | 16 µM | 8.4 µM | 10.4 µM | binds | binding result [6]: binds
B2 | – | – | 0.54 µM | 1.4 µM | 4.1 µM | binds | binding result [8]: binds; binding result [9]: binds
B3 | – | – | 35.7 µM | 12.5 µM | 20 µM | binds | binding result [6]: binds
B4 | – | – | 31.3 µM | 17.3 µM | 20.2 µM | binds | binding result [8]: binds; binding result [10]: binds
